Experiments:
[1] = molecular target: T1, human integrin α11-EGFP (human, UniProt Q9UKX5 23-1188); test: Western blot on C2C12-hu α11-EGFP lysate (FIG. 1D)
T1 construct: whole, on cells; Fusion of about 180 kDa by the legend; In the Western blot it stood as denatured protein from cell lysate; also called hu α11-EGFP; C2C12-hu α11-EGFP; not shown: EGFP tag
T1 sequence (looked up): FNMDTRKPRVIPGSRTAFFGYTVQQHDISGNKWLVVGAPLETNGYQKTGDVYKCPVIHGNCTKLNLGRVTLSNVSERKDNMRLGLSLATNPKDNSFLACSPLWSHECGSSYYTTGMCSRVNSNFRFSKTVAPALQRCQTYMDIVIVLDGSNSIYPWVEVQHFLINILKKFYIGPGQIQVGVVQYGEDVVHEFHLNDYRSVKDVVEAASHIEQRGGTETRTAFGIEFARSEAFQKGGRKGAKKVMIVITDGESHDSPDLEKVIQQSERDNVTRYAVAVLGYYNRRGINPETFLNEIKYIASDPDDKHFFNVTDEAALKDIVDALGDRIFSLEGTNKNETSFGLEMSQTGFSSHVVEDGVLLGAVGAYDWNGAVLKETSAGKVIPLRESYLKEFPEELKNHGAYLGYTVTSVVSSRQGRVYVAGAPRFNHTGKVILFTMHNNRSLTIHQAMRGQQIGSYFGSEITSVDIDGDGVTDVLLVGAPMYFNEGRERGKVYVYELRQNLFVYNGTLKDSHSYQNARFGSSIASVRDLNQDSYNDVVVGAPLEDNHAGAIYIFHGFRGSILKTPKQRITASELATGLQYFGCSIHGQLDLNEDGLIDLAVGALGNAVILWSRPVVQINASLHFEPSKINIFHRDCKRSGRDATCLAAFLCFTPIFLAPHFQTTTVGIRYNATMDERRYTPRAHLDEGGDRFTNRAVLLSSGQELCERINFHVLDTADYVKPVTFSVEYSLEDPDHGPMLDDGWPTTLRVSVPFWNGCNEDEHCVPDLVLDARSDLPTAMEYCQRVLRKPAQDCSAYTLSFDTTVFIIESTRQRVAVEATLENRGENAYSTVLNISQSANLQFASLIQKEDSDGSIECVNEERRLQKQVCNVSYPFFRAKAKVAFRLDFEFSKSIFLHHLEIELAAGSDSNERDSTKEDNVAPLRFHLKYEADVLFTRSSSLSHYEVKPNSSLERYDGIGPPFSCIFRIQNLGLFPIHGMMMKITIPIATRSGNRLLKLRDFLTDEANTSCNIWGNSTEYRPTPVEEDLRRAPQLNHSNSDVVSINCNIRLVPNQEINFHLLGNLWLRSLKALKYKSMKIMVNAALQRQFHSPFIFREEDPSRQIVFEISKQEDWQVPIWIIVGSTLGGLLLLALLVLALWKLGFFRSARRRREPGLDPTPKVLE

[2] = molecular target: T2, human integrin α11 subunit (human, UniProt Q9UKX5 23-1188); test: immunoprecipitation from C2C12-α11 cell lysate, Western blot detection with the polyclonal α11 antibody (FIG. 1C)
T2 construct: whole, on cells; In C2C12-α11 cells and their lysates the human α11 chain is present as α11β1 heterodimer (the legend says 'Immunoprecipitation of integrin α11β1'); the β1 partner in the mouse cells is not described; In the staining and blot experiments cells were methanol fixed, lysed or the tissue was formalin fixed and paraffin embedded; also called alpha-11 integrin subunit; integrin chain α11
T2 sequence (looked up): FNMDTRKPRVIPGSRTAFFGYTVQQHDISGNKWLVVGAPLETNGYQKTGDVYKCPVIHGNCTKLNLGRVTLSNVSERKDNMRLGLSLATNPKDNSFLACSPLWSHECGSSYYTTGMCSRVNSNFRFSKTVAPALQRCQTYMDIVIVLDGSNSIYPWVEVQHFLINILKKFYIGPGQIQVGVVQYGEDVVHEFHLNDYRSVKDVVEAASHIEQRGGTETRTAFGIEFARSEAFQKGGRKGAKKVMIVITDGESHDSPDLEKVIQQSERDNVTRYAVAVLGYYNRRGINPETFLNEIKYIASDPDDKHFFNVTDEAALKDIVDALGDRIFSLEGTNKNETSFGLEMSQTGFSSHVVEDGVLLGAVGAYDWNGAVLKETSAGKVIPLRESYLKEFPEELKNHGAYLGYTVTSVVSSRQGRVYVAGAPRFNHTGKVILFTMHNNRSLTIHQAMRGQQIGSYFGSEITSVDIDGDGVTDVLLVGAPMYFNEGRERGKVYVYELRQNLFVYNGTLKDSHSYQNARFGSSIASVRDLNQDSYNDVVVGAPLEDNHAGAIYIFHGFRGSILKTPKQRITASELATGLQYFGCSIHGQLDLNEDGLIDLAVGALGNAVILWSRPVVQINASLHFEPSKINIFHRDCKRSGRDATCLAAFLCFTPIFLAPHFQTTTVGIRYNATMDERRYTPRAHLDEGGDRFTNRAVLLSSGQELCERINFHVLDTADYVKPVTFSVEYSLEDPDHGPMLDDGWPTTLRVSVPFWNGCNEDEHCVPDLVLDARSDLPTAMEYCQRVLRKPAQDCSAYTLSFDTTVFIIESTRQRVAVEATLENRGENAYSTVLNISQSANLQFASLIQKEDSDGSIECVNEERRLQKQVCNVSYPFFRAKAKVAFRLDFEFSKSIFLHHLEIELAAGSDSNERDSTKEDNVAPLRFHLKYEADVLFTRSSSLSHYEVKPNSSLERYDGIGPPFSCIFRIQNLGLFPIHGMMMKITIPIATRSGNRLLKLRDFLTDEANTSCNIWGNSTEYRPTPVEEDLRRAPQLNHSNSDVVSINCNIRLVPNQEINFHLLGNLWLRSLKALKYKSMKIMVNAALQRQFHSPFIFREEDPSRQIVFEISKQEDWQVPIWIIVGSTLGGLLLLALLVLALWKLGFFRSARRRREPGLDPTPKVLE
Method: FIG. 1. Immunological characterization of 210F4B6A4 mAb [0019] A-B. C2C12 mouse myoblast cells expressing human integrin α11-EGFP or WT (wildtype) C2C12 cells were stained with 210F4B6A4 mAb for 1 hour at 4° C. Cells were then washed and stained with goat anti-mouse R-Phycoerythrin IgG. Samples were analysed by flow cytometry using Intellicyt iQue and fluorescence intensity was measured. [0020] C. Immunoprecipitation (IP) of integrin α11β1 with the 210F4B6A4 mAb and the polyclonal α11 antibody (α11 pAb)[5]. Protein bands of integrin chain α11 at the expected size after immunoprecipitation using α11 antibodies followed by Western blotting and detection using the polyclonal α11 antibody. [0021] D. Western-blotting (WB) using the α11 210F4B6A4 mAb on C2C12-hu α11-EGFP lysate, shown is the protein band of expected size of aα11-EGFP (180 kDa). [0022] E. C2C12 mouse myoblast cells expressing human integrin α11 were allowed to attach on collagen I-cocated coverslips for 2 hours, cell were then fixed with methanol and incubated with 210F4B6A4 mAb or control IgG. Bound antibody was detected using goat anti-mouse Alexa Fluor 594. Integrin α11 staining in cell focal adhesions is indicated by white arrowheads. […]

B1: monoclonal mouse anti-human integrin alpha-11 antibody clone 210 F4B6A4 produced by the hybridoma deposited as DSM ACC3320 (antibody, V domains shown)
VH: EVQLQQSGAELVRPGASVKVSCTASGFNIKDDYIHWMRRRPAQGLEWIGWIDPENGDTEYASNFQGKATTTVDVSSNTAYLQLSRLTSEDTAIYYCSREYAYWGQGTLVTVSA
VL: DVVMTQTPLSLPVSLGDQASISCRSSQSLLYSNGNTYLQWYLQKPGQSPKLLIYRASNRFSGVPDRFSGSGSGTDFTLKISRVEAEDLGVYFCSQSTHVPWTFGGGTKLEIK
notes: Mouse monoclonal antibody from hybridoma (used partly as hybridoma supernatant); also called 210F4B6A4 mAb; F210F4B6A4
**Q.** Does B1 bind [1]?
**A.** Result: binds

**Q.** Does B1 bind [2]?
**A.** Result: binds

Reference: patent publication US20210047418A1 (VESTLANDETS INNOVASJONSSELSKAP, published 2021)
